Measured values as given in patent US20250333445A1, “NOVEL POLYPEPTIDES” (Oncopeptides Innovation 1 AB, priority 2022, published 2025).

Biological target: Human BCMA-rFc (BCMA Protein aa 1-54, Human, Recombinant (ECD, rabbit Fc Tag), cat. no. 10620-H15H, Sino Biological) (human) (UniProt Q02223)
Experiment: SPR, 200 nM hCD16a over immobilised hBCMA-rFc without engager (background control)

| Substance | response signal [RU] |
| --- | --- |
| hCD16a F158 (Cat. no. CDA-H5220, Acro Biosystems) (from UniProt P08637 17-208) (receptor) | < 10 |
| hCD16a V158 (Cat. no. CD8-H52H4, Acro Biosystems) (from UniProt P08637 17-208) (receptor) | < 10 |
